Measurements reported in paper doi:10.1101/2020.06.29.177279 (bioRxiv, 2020).
Blank lines part the entries; values can stand above or below the binder they belong to.

Legend:
Assay in all cases: cryo-EM structure
RPABC1 = RPABC1 (human (endogenous in HeLa), UniProt P19388 1-210)
RPC5 (from HeLa) = biological target: T1, RPC5 (from HeLa) (human (endogenous in HeLa), UniProt Q9NVU0 1-708)
T1 sequence: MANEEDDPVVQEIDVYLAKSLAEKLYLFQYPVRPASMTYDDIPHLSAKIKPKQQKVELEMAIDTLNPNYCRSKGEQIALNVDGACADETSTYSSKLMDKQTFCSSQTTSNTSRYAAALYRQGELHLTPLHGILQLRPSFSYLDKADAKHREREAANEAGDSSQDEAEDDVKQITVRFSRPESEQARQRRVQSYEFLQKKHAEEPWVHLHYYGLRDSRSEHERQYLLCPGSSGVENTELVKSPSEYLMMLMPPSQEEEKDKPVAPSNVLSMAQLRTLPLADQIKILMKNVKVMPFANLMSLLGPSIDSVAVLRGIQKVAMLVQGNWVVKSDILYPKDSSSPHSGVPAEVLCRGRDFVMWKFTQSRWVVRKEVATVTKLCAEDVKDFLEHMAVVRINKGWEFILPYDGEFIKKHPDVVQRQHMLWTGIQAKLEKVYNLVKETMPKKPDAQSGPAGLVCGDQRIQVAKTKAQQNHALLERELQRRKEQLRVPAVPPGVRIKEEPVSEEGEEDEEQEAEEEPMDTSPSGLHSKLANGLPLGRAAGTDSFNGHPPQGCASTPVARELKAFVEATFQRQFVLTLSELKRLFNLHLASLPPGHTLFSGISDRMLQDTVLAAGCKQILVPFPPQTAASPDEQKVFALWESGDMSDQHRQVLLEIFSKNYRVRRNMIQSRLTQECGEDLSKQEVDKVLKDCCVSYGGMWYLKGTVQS

RPC8 = biological target: T2, RPC8 (human (endogenous in HeLa), UniProt Q9Y535 1-204)
T2 sequence: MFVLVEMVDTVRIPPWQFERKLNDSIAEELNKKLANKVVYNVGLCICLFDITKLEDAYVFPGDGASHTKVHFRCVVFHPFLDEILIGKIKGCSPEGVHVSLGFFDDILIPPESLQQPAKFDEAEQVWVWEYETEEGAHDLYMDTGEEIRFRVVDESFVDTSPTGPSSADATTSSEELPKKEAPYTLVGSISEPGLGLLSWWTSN

binding result (RPABC1): binds
B1: RPC1, largest subunit of human Pol III (from HeLa) (natural protein)
chain: MVKEQFRETDVAKKISHICFGMKSPEEMRQQAHIQVVSKNLYSQDNQHAPLLYGVLDHRMGTSEKDRPCETCGKNLADCLGHYGYIDLELPCFHVGYFRAVIGILQMICKTCCHIMLSQEEKKQFLDYLKRPGLTYLQKRGLKKKISDKCRKKNICHHCGAFNGTVKKCGLLKIIHEKYKTNKKVVDPIVSNFLQSFETAIEHNKEVEPLLGRAQENLNPLVVLNLFKRIPAEDVPLLLMNPEAGKPSDLILTRLLVPPLCIRPSVVSDLKSGTNEDDLTMKLTEIIFLNDVIKKHRISGAKTQMIMEDWDFLQLQCALYINSELSGIPLNMAPKKWTRGFVQRLKGKQGRFRGNLSGKRVDFSGRTVISPDPNLRIDEVAVPVHVAKILTFPEKVNKANINFLRKLVQNGPEVHPGANFIQQRHTQMKRFLKYGNREKMAQELKYGDIVERHLIDGDVVLFNRQPSLHKLSIMAHLARVKPHRTFRFNECVCTPYNADFDGDEMNLHLPQTEEAKAEALVLMGTKANLVTPRNGEPLIAAIQDFLTGAYLLTLKDTFFDRAKACQIIASILVGKDEKIKVRLPPPTILKPVTLWTGKQIFSVILRPSDDNPVRANLRTKGKQYCGKGEDLCANDSYVTIQNSELMSGSMDKGTLGSGSKNNIFYILLRDWGQNEAADAMSRLARLAPVYLSNRGFSIGIGDVTPGQGLLKAKYELLNAGYKKCDEYIEALNTGKLQQQPGCTAEETLEALILKELSVIRDHAGSACLRELDKSNSPLTMALCGSKGSFINISQMIACVGQQAISGSRVPDGFENRSLPHFEKHSKLPAAKGFVANSFYSGLTPTEFFFHTMAGREGLVDTAVKTAETGYMQRRLVKSLEDLCSQYDLTVRSSTGDIIQFIYGGDGLDPAAMEGKDEPLEFKRVLDNIKAVFPCPSEPALSKNELILTTESIMKKSEFLCCQDSFLQEIKKFIKGVSEKIKKTRDKYGINDNGTTEPRVLYQLDRITPTQVEKFLETCRDKYMRAQMEPGSAVGALCAQSIGEPGTQMTLKTFHFAGVASMNITLGVPRIKEIINASKAISTPIITAQLDKDDDADYARLVKGRIEKTLLGEISEYIEEVFLPDDCFILVKLSLERIRLLRLEVNAETVRYSICTSKLRVKPGDVAVHGEAVVCVTPRENSKSSMYYVLQFLKEDLPKVVVQGIPEVSRAVIHIDEQSGKEKYKLLVEGDNLRAVMATHGVKGTRTTSNNTYEVEKTLGIEAARTTIINEIQYTMVNHGMSIDRRHVMLLSDLMTYKGEVLGITRFGLAKMKESVLMLASFEKTADHLFDAAYFGQKDSVCGVSECIIMGIPMNIGTGLFKLLHKADRDPNPPKRPLIFDTNEFHIPLVT

binding result (RPC5 (from HeLa)): binds
B2: RPC4 (from HeLa) (natural protein)
chain: MSEGNAAGEPSTPGGPRPLLTGARGLIGRRPAPPLTPGRLPSIRSRDLTLGGVKKKTFTPNIISRKIKEEPKEEVTVKKEKRERDRDRQREGHGRGRGRPEVIQSHSIFEQGPAEMMKKKGNWDKTVDVSDMGPSHIINIKKEKRETDEETKQILRMLEKDDFLDDPGLRNDTRNMPVQLPLAHSGWLFKEENDEPDVKPWLAGPKEEDMEVDIPAVKVKEEPRDEEEEAKMKAPPKAARKTPGLPKDVSVAELLRELSLTKEEELLFLQLPDTLPGQPPTQDIKPIKTEVQGEDGQVVLIKQEKDREAKLAENACTLADLTEGQVGKLLIRKSGRVQLLLGKVTLDVTMGTACSFLQELVSVGLGDSRTGEMTVLGHVKHKLVCSPDFESLLDHKHR

binding result (RPC8): binds
B3: RPC9 (natural protein)
chain: not shown
